Where two headings read alike, the source gives them in different places.
Key:
[1] = tested on: endogenous insulin secretion; experiment: Suppression of endogenous insulin secretion by somatostatin analogs (Porcine Insulin ELISA); format: in vivo, pig; conditions: octreotide 0.4 mg IV hourly together with pasireotide 0.3 mg SC every 3 hours, pigs, no detectable levels
Method: To suppress the endogenous insulin and glucagon secretion, all pigs received the somatostatin analogs octreotide (Sandostatin 200 µg/mL, Novartis Europharm, UK) and pasireotide (Signifor 0.3 mg/mL, Novartis Europharm).
(§1) The somatostatin analogs were injected 1 hour before the first insulin bolus of the day. 0.4 mg octreotide was injected intravenously and 0.3 mg pasireotide was injected subcutaneously. The octreotide injections were repeated hourly and the pasireotide injections were repeated every 3 hours during the trial.

[2] = in vitro model; cited from earlier work
Excerpt: The liver is the major organ involved in glucose homeostasis.

[3] = Excerpt: Between January 2017 and August 2018, eight juvenile, non-diabetic, cross-bred pigs (50% Landswine, 50% Yorkshire) approximately 3 months of age (one male (36.2 kg) and seven females (39.5±2.7 kg)) were brought from the same local farmer approximately 1 week before the trials and acclimatized to the staff and new environment. Whenever possible, the pigs were kept in groups in a common stall (11.2 m^2) with concrete floor covered with woodchips. In every stall, a heating lamp was provided. In the facility, a day-night photoperiod (night: 21:00–05:00, dawn: 05:00–07:00, day: 07:00–19:00, dusk: 19:00–21:00) was maintained at 22°C and a relative humidity of 45%±5%. The pigs were fed standard food (Format Vekst 100, Felleskjøpet, Norway) and fresh water was available ad libitum. Food was removed 17 hours before the start of the trial while water was available until anesthesia was initiated.
In the main trial, the first pig was used to obtain information about optimal infusion rate of glucose to maintain stable glucose levels throughout the trial days. The second pig was used to confirm the chosen infusion rate. The remaining six pigs were used to study the pharmacokinetics and pharmacodynamics of intraperitoneally delivered insulin boluses. However, all pigs received boluses of 2, 5 and 10 U of insulin (1 U/s) in the upper right quadrant of the intraperitoneal cavity. The order of insulin boluses for the first two pigs was 2, 5 and 10 U. The order of boluses for the last six pigs was randomized.[6] There were at least 2 hours and 30 min between each bolus.
At the start of every trial day, a fresh insulin analog (100 U/mL, NovoRapid, Novo Nordisk, Denmark) was inserted in an insulin pump (Animas Vibe).
(§2) In the main trial, all pigs (n=7) received three insulin boluses (2, 5 and 10 U) in the upper right intraperitoneal space. In the additional trial, insulin boluses were injected into the subcutaneous tissues in the left side of the neck. Two pigs received 10 U boluses and one pig received a 5 U bolus.
(§3) In both trials, blood samples for insulin analysis were stored on ice for at least 10 min before centrifugation (10 min at 2.000× rpm in a refrigerated centrifuge). Plasma was collected from the samples immediately after centrifugation and transferred into empty Eppendorf Tubes and temporarily stored at −20°C. At the end of each trial day, plasma samples were stored at −80°C.
(§4) Plasma insulin was analyzed as singles by Iso-Insulin ELISA kit (10-1128-01, Mercodia, Uppsala, Sweden). Suppression of endogenous insulin secretion was verified by analyses of Porcine Insulin ELISA (10-1200-01, Mercodia) according to the manufacturer’s protocol. The results were converted from mU/L to pmol/L by a conversion factor 6, as recommended by the manufacturer. The lowest detectable insulin concentration for the Iso-Insulin ELISA kit was <3.0 mU/L (18 pmol/L) and for Porcine Insulin ELISA was <2.3 mU/L (13.8 pmol/L).
Delta values collected from the main trial with different insulin boluses (2, 5 and 10 U) in the pigs were analyzed. In order to estimate possible significant differences in circulating insulin and blood glucose levels after IP insulin boluses, a two-way repeated measures analysis of variance was performed. Treatment and time were the sources of variation. Tukey’s multiple comparisons test was used for distinguishing comparisons between different insulin boluses. All non-measurable insulin values were set at 18 pmol/L. All treatments are compared as models; therefore, comparison between unequal groups is allowed. Statistics were performed with GraphPad Prism V.8 Statistics. All values are given as mean±SD, unless stated otherwise. Differences between the groups were considered significant if p≤0.05.

pigs = experiment: Blood glucose after intraperitoneal insulin boluses in anesthetized pigs; format: in vivo, pig; conditions: mean±SE
Method: In every stall, a heating lamp was provided.
as §1
To prevent hypoglycemia, a continuous venous glucose infusion was provided through the left internal jugular vein and was continued for the duration of the experiment. The blood glucose levels were kept in the range of 4.5–5.5 mmol/L before each insulin bolus was given.
In the first pig, we tested different glucose infusion rates to identify a suitable rate. In the remaining seven pigs, a constant glucose infusion rate of 8 g/hour was used throughout the experiments.
For both trials, arterial blood samples for glucose analysis were collected in heparinized syringes (LEO Pharma). Samples were analyzed on a Radiometer ABL 725 blood gas analyzer (Radiometer Medical, Brønshøj, Denmark). All blood samples were placed on ice immediately after extraction from the pigs. Most samples were analyzed consecutively, but some samples were stored on ice for a maximum of 20 min before analysis.
In the main trial, samples were collected 10, 5 and 1 min prior to the first somatostatin analog injection, every 10 min for the first hour after Sandostatin injection, every minute for the first 10 min after the insulin bolus, and every fifth minute thereafter for the next 110 min.
From the main trial, data from the last seven pigs were used for statistical analysis. We assumed the glucose levels at −5 min to be the baseline glucose levels at the start before each bolus (online supplemental figure S1).
Treatment and time were the sources of variation. […] Statistics were performed with GraphPad Prism V.8 Statistics.

[4] = remark: listed apart in the source
Excerpt: We also performed an additional trial to investigate subcutaneous insulin dynamics and effect on blood glucose levels, performed under similar conditions. For more details, see online supplemental material section 'Additional trial'. In short, between May 2019 and January 2020, three juvenile, non-diabetic, cross-bred male pigs (50% Landswine, 50% Yorkshire) approximately 3 months of age weighing 39.5±4.3 kg were brought from the same local farmer and kept in the conditions as in the main trial.
In the additional trial, two pigs received 10 U subcutaneous insulin boluses and one pig received a 5 U subcutaneous insulin bolus. All subcutaneous insulin boluses were performed as the first bolus of the day.
Additionally, all pigs received an intraperitoneal glucagon bolus (150 µg) 40 min after the insulin bolus.
as §2, §3, §4

[5] = 5 U subcutaneous bolus, n=1 pig
[6] = 10 U subcutaneous boluses, n=2 pigs

Row | Substance | endogenous insulin levels during the experiments [1] | hepatic first-pass effect [2] | effect on mean circulating insulin level ([3]; 2 U IP bolus, n=7 pigs) | effect on mean circulating insulin level ([3]; 5 U IP bolus, n=7 pigs) | mean circulating insulin levels after 5 U compared with 2 U intraperitoneal insulin boluses ([3]; 5 U vs 2 U IP bolus, n=7 pigs, p=0.89) | time after which mean circulating insulin level was close to baseline ([3]; 10 U IP bolus, n=7 pigs) | time after which mean insulin level started to increase ([3]; 10 U IP bolus, n=7 pigs) | increase of mean circulating insulin level after 10 U compared with 2 U intraperitoneal insulin boluses ([3]; 10 U vs 2 U IP bolus, n=7 pigs, plasma, Iso-Insulin ELISA, mean±SE, 95% CI 1.99 to 5.37, p<0.0001) | increase of mean circulating insulin level after 10 U compared with 5 U intraperitoneal insulin boluses ([3]; 10 U vs 5 U IP bolus, n=7 pigs, plasma, Iso-Insulin ELISA, mean±SE, 95% CI 5.86 to 10.89, p<0.0001) | first-pass effect in the liver ([3]; after the smaller (2 and 5 U) IP insulin boluses, inferred from circulating insulin levels in pigs) | decrease of estimated mean blood glucose level after 5 U compared with 2 U intraperitoneal insulin boluses (pigs; 5 U vs 2 U IP bolus, anesthetized non-diabetic pigs, n=7, 120 min after bolus, glucose infusion 8 g/hour, 95% CI 0.31 to 0.65, p<0.0001) | decrease of estimated mean blood glucose level after 10 U compared with 2 U intraperitoneal insulin boluses (pigs; 10 U vs 2 U IP bolus, anesthetized non-diabetic pigs, n=7, 120 min after bolus, glucose infusion 8 g/hour, 95% CI 0.44 to 0.79, p<0.0001) | change of mean blood glucose level after 10 U compared with 5 U intraperitoneal insulin boluses (pigs; 10 U vs 5 U IP bolus, n=7 pigs, 95% CI −0.04 to 0.30, p=0.184, not different) | time after bolus at which insulin level was increased [4, 5] | time at which insulin levels were still elevated [4, 5] | time after boluses at which mean insulin level was increased [4, 6] | time at which insulin levels were still elevated [4, 6] | mean circulating insulin level after subcutaneous compared with intraperitoneal insulin boluses ([4]; subcutaneous (5 U n=1, 10 U n=2) vs IP boluses (n=7), p value not calculated)
1 | pasireotide | < 13.8 pmol/L | – | – | – | – | – | – | – | – | – | – | – | – | – | – | – | – | –
2 | octreotide | < 13.8 pmol/L | – | – | – | – | – | – | – | – | – | – | – | – | – | – | – | – | –
3 | insulin: fresh insulin analog (100 U/mL, NovoRapid, Novo Nordisk, Denmark) delivered by insulin pump | – | up to 80% | did not increase | did not increase | not different | 80 min | 10 min | 7.89 ± 1.07 pmol/L | 8.37 ± 1.07 pmol/L | ~100% | 0.48 ± 0.07 mmol/L | 0.61 ± 0.07 mmol/L | 0.13 ± 0.07 mmol/L | 5 min | 140 min | 5 min | 140 min | increased more
